Data: US10253086B2, “CD20 therapies, CD22 therapies, and combination therapies with a CD19 chimeric antigen receptor (CAR)-expressing cell” (Novartis AG, priority 2015, dated 2019)

System: CD19 and CD22
Test: NFAT assay of bispecific CAR19/CAR22 constructs
Assay type: cell-based
Protocol: The bispecific CD19-CD22 and CD22-CD19 constructs described above were tested in an NFAT assay, as described in the Examples below. As controls, an anti-CD19 alone CAR and an anti-CD22 alone CAR were used.

B1: CD22-CD19: bispecific scFv tandem fusion CAR, hCD22-2 and humanized anti-CD19 (104876) (protein)
scFv: EVQLQQSGPGLVKPSQTLSLTCAISGDSVSSNSAAWNWIRQSPSRGLEWLGRTYYRSKWYNDYAVSVKSRITINPDTSKNQFSLQLNSVTPEDTAVYYCARDLGWIAVAGTFDYWGQGTLVTVSSGGGGSGGGGSGGGGSQSALTQPASVSGSPGQSITISCTGTSSDVGGYNYVSWYQQHPGKAPKLMIYDVSKRPSGVSNRFSGSKSGNTASLTISGLQAEDEADYYCSSYTSSSLNHVFGTGTKVTVLTGGGGSGGGGSGGGGSGGGGSEIVMTQSPATLSLSPGERATLSCRASQDISKYLNWYQQKPGQAPRLLIYHTSRLHSGIPARFSGSGSGTDYTLTISSLQPEDFAVYFCQQGNTLPYTFGQGTKLEIKGGGGSGGGGSGGGGSQVQLQESGPGLVKPSETLSLTCTVSGVSLPDYGVSWIRQPPGKGLEWIGVIWGSETTYYQSSLKSRVTISKDNSKNQVSLKLSSVTAADTAVYYCAKHYYYGGSYAMDYWGQGTLVTVSS
activity in NFAT assay: active against their targets
